The values below come from publication PMC1142346.

Usually Kd stands for the constant that tells how readily two partners part at equilibrium. The low end stands for a tighter complex, the high end for a looser complex.

Some targets named below: BLM642-1290 WT (Homo sapiens, UniProt P54132 642-1290); BLM642-1290 C1063N (Homo sapiens, UniProt P54132 642-1290, C1063N); BLM642-1290 C1055N (Homo sapiens, UniProt P54132 642-1290, C1055N).
Holding throughout (assay): fluorescence anisotropy
On the technique in general: In fluorescence polarisation assays a small probe gives low polarisation when free and higher when bound to something large.

For series [1], the target named is BLM642-1290 zinc-demetalated (WTzn-) (Homo sapiens, UniProt P54132 642-1290).
Chain of BLM642-1290 zinc-demetalated (WTzn-) (P54132 642-1290): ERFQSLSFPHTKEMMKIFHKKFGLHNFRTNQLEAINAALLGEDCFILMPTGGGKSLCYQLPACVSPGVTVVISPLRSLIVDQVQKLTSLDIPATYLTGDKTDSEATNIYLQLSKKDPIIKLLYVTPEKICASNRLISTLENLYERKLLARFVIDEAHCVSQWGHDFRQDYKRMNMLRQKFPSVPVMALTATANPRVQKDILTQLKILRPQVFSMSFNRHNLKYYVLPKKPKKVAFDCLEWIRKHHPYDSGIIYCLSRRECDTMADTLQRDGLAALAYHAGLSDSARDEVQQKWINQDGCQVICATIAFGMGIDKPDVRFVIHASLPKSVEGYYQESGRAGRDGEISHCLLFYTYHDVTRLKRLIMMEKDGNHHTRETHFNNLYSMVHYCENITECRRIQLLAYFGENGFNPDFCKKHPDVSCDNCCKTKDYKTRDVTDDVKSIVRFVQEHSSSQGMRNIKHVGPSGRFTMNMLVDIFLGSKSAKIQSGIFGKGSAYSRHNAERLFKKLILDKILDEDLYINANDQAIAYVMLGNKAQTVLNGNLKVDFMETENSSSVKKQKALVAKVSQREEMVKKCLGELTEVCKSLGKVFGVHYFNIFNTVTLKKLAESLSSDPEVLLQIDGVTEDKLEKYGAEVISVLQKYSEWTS
Series [2] deals with BLM642-1290 C1055N/C1063N (Homo sapiens, UniProt P54132 642-1290, C1055N;C1063N).
Chain of BLM642-1290 C1055N/C1063N (P54132 642-1290 C1055N/C1063N): as the sequence (P54132 642-1290) above, with C414N, C422N counted along it

Chain of BLM642-1290 C1063N (P54132 642-1290 C1063N): as the sequence (P54132 642-1290) above, with C422N counted along it
Chain of BLM642-1290 C1055N (P54132 642-1290 C1055N): as the sequence (P54132 642-1290) above, with C414N counted along it
Chain of BLM642-1290 WT (P54132 642-1290): as the sequence (P54132 642-1290) above

Turning to GGGTTAGGGTTAGGGTTAGGG (structured_DNA) [F21 G4 DNA], the dissociation constant Kd with BLM642-1290 WT was 4.57 nM; with BLM642-1290 C1063N, 1990 nM; in series [1], 4.85 nM.

B1: A/B partial duplex (23mer duplex with ss tails), fluorescent (dsDNA)
DNA 1: GCACTGGCCGTCGTTTTACGGTCGTGACTGGGAAAACCCTGGCG
DNA 2: TTTTTTTTTTTTTTTTTTTTTTAGCCGTAAAACGACGGCCAGTGC
As to B1, the Kd with BLM642-1290 C1055N amounted to 56 ± 1.8 nM; in series [2] it was 209 ± 3.5 nM.
